Patent US20230416366A1 (Hoffmann-La Roche, published 2023)

biological target: T1, human CD28 on Jurkat reporter cells (human, UniProt P10747 19-220); assay: flow cytometry, MFI (PE) of PE-conjugated anti-human secondary, CHO cells stably overexpressing human CD28; monovalent one-armed IgG from supernatant
T1 construct: Endogenous CD28 of Jurkat NFAT / Jurkat IL2 reporter cells; also called hu CD28
Description: Binding was assessed by flow cytometry with a FACS Fortessa (BD, Software FACS Diva). Binding curves were obtained using GraphPadPrism6.

Binder | binding result
CD28(SA)_variant_25 (antibody, human IgG1, kappa, L234A L235A, monovalent one-armed IgG-like construct (hu IgG1 PGLALA), tested from HEK supernatant without purification; also called P1AE3081) heavy: not shown light: not shown DKTHTCPPCPAPEAAGGPSVFLFPPKPKDTLMISRTPEVTCVVVDVSHEDPEVKFNWYVDGVEVHNAKTKPREEQYNSTYRVVSVLTVLHQDWLNGKEYKCKVSNKALGAPIEKTISKAKGQPREPQVCTLPPSRDELTKNQVSLSCAVKGFYPSDIAVEWESNGQPENNYKTTPPVLDSDGSFFLVSKLTVDKSRWQQGNVFSCSVMHEALHNRFTQKSLSLSP | binds
CD28(SA)_variant_27 (antibody, human IgG1, kappa, L234A L235A, monovalent one-armed IgG-like construct (hu IgG1 PGLALA), tested from HEK supernatant without purification; also called P1AE3083) heavy: not shown light: not shown DKTHTCPPCPAPEAAGGPSVFLFPPKPKDTLMISRTPEVTCVVVDVSHEDPEVKFNWYVDGVEVHNAKTKPREEQYNSTYRVVSVLTVLHQDWLNGKEYKCKVSNKALGAPIEKTISKAKGQPREPQVCTLPPSRDELTKNQVSLSCAVKGFYPSDIAVEWESNGQPENNYKTTPPVLDSDGSFFLVSKLTVDKSRWQQGNVFSCSVMHEALHNRFTQKSLSLSP | binds
CD28(SA)_variant_29 (antibody, human IgG1, kappa, L234A L235A, monovalent one-armed IgG-like construct (hu IgG1 PGLALA), tested from HEK supernatant without purification; also called P1AE3085) heavy: not shown light: not shown DKTHTCPPCPAPEAAGGPSVFLFPPKPKDTLMISRTPEVTCVVVDVSHEDPEVKFNWYVDGVEVHNAKTKPREEQYNSTYRVVSVLTVLHQDWLNGKEYKCKVSNKALGAPIEKTISKAKGQPREPQVCTLPPSRDELTKNQVSLSCAVKGFYPSDIAVEWESNGQPENNYKTTPPVLDSDGSFFLVSKLTVDKSRWQQGNVFSCSVMHEALHNRFTQKSLSLSP | binds

The next lines start with the values.

binding result | Binder
binds | CD28(SA)_variant_31 (antibody, human IgG1, kappa, L234A L235A, monovalent one-armed IgG-like construct (hu IgG1 PGLALA), tested from HEK supernatant without purification; also called P1AE3087) heavy: not shown light: not shown DKTHTCPPCPAPEAAGGPSVFLFPPKPKDTLMISRTPEVTCVVVDVSHEDPEVKFNWYVDGVEVHNAKTKPREEQYNSTYRVVSVLTVLHQDWLNGKEYKCKVSNKALGAPIEKTISKAKGQPREPQVCTLPPSRDELTKNQVSLSCAVKGFYPSDIAVEWESNGQPENNYKTTPPVLDSDGSFFLVSKLTVDKSRWQQGNVFSCSVMHEALHNRFTQKSLSLSP
binds | CD28(SA)_variant_26 (antibody, human IgG1, kappa, L234A L235A, monovalent one-armed IgG-like construct (hu IgG1 PGLALA), tested from HEK supernatant without purification; also called P1AE3082) heavy: not shown light: not shown DKTHTCPPCPAPEAAGGPSVFLFPPKPKDTLMISRTPEVTCVVVDVSHEDPEVKFNWYVDGVEVHNAKTKPREEQYNSTYRVVSVLTVLHQDWLNGKEYKCKVSNKALGAPIEKTISKAKGQPREPQVCTLPPSRDELTKNQVSLSCAVKGFYPSDIAVEWESNGQPENNYKTTPPVLDSDGSFFLVSKLTVDKSRWQQGNVFSCSVMHEALHNRFTQKSLSLSP
binds | CD28(SA)_variant_30 (antibody, human IgG1, kappa, L234A L235A, monovalent one-armed IgG-like construct (hu IgG1 PGLALA), tested from HEK supernatant without purification; also called P1AE3086) heavy: not shown light: DIQMTQSPSSLSASVGDRVTITCRASQNIYVWLNWYQQKPGKAPKLLIYKASNLYSGVPSRFSGSRSGTDFTLTISSLQPEDFATYYCQQGQTYPYTFGQGTKLEIKRTVAAPSVFIFPPSDRKLKSGTASVVCLLNNFYPREAKVQWKVDNALQSGNSQESVTEQDSKDSTYSLSSTLTLSKADYEKHKVYACEVTHQGLSSPVTKSFNRGEC DKTHTCPPCPAPEAAGGPSVFLFPPKPKDTLMISRTPEVTCVVVDVSHEDPEVKFNWYVDGVEVHNAKTKPREEQYNSTYRVVSVLTVLHQDWLNGKEYKCKVSNKALGAPIEKTISKAKGQPREPQVCTLPPSRDELTKNQVSLSCAVKGFYPSDIAVEWESNGQPENNYKTTPPVLDSDGSFFLVSKLTVDKSRWQQGNVFSCSVMHEALHNRFTQKSLSLSP
